Results from PMC6776900, “PPM1G forms a PPP‐type phosphatase holoenzyme with B56δ that maintains adherens junction integrity” (EMBO Reports, 2019).

Key:
Assay in all cases: BLI; Octet Red 96; His-tagged PPM1G or PPP2R1A immobilised on Ni-NTA biosensors, GST-B56δ proteins in solution (100–400 nm); 50 mM Tris pH 7.5, 300 mM NaCl, 0.01% NP-40 Igepal, 1 mM DTT; 25 °C
Details in all cases: both partners purified
GST-B56δ L183A = target: T1, GST-B56δ L183A (human, UniProt Q14738 1-602, L183A)
T1 construct: B56δ (PPP2R5D), human cDNA, full length, point mutant; source: E. coli BL21 (DE3), purified (glutathione Sepharose)
T1 sequence (Q14738 whole entry L183A): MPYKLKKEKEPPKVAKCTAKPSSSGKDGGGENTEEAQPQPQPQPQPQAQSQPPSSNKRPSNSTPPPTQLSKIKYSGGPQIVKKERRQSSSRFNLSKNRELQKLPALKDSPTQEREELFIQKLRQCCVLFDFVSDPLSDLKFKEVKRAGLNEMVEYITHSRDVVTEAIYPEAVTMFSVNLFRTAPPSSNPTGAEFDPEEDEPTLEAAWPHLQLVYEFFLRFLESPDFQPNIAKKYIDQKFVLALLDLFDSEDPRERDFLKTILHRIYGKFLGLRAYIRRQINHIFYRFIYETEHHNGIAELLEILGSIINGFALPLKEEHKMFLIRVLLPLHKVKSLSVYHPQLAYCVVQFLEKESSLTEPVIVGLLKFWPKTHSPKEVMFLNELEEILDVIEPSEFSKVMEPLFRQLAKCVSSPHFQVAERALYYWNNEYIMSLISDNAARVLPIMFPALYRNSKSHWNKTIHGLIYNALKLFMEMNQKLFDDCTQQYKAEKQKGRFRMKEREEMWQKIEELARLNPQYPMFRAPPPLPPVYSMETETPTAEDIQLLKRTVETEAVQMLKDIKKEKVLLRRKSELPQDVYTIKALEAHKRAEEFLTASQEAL

GST-B56δ H282A = target: T2, GST-B56δ H282A (human, UniProt Q14738 1-602, H282A)
T2 construct: B56δ (PPP2R5D), human cDNA, full length, point mutant; source: E. coli BL21 (DE3), purified (glutathione Sepharose)
T2 sequence (Q14738 whole entry H282A): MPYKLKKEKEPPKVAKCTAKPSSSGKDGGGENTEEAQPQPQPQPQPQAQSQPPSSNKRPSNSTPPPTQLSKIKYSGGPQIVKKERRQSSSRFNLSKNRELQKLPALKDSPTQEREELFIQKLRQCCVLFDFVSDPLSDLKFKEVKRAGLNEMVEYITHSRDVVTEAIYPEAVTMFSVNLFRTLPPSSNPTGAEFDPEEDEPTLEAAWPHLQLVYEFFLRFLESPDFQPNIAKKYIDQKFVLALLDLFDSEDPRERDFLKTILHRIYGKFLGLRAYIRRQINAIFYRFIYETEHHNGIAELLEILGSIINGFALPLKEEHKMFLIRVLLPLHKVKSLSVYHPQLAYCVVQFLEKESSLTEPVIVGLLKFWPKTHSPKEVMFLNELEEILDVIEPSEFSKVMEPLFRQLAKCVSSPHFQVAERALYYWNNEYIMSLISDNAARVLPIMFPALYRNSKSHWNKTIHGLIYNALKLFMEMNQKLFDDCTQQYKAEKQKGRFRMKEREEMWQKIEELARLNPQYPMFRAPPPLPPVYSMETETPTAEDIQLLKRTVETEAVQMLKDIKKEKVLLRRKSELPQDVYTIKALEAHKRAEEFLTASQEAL

GST-B56δ = target: T3, GST-B56δ (human, UniProt Q14738 1-602)
T3 construct: PP2A regulatory subunit B56δ (PPP2R5D), human cDNA, full-length protein; also called GST-B56δ wild type (WT); GST-tagged B56δ; source: E. coli BL21 (DE3), purified (glutathione Sepharose)
T3 sequence (Q14738 whole entry, stated change not applied): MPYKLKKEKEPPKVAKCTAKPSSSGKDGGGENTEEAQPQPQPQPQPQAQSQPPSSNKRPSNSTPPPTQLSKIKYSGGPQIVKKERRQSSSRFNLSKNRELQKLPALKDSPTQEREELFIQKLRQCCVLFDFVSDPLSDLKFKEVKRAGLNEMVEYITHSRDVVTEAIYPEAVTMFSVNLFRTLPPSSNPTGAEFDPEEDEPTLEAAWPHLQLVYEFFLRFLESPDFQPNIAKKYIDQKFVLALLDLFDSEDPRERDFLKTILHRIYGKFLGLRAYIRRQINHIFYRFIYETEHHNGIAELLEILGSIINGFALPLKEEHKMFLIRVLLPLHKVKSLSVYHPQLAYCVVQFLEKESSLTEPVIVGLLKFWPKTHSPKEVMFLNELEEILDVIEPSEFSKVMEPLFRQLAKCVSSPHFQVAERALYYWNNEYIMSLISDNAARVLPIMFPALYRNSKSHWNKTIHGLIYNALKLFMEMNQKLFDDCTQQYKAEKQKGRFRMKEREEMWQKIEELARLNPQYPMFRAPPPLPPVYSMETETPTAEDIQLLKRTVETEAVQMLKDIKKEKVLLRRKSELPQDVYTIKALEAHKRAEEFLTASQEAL

B1: 6xHis-tagged PPM1G (enzyme, human, UniProt O15355 1-546, looked up)
chain: MGAYLSQPNTVKCSGDGVGAPRLPLPYGFSAMQGWRVSMEDAHNCIPELDSETAMFSVYDGHGGEEVALYCAKYLPDIIKDQKAYKEGKLQKALEDAFLAIDAKLTTEEVIKELAQIAGRPTEDEDEKEKVADEDDVDNEEAALLHEEATMTIEELLTRYGQNCHKGPPHSKSGGGTGEEPGSQGLNGEAGPEDSTRETPSQENGPTAKAYTGFSSNSERGTEAGQVGEPGIPTGEAGPSCSSASDKLPRVAKSKFFEDSEDESDEAEEEEEDSEECSEEEDGYSSEEAENEEDEDDTEEAEEDDEEEEEEMMVPGMEGKEEPGSDSGTTAVVALIRGKQLIVANAGDSRCVVSEAGKALDMSYDHKPEDEVELARIKNAGGKVTMDGRVNGGLNLSRAIGDHFYKRNKNLPPEEQMISALPDIKVLTLTDDHEFMVIACDGIWNVMSSQEVVDFIQSKISQRDENGELRLLSSIVEELLDQCLAPDTSGDGTGCDNMTCIIICFKPRNTAELQPESGKRKLEEVLSTEGAEENGNSDKKKKAKRD
notes: PPM1G (PP2Cγ); The cloning into a His-tag vector is not described in the methods; also called His-PPM1G; recombinant PPM1G; source: recombinant
- Kd (GST-B56δ L183A): 5.59 nM
- Kd (GST-B56δ H282A): 4.38 nM
- Kd (GST-B56δ): 5.04 nM
